Test results taken from patent publication US20130130985A1 (published 2013).
Bridges are numbered along the chain shown (N, C = ends). Where no end group is shown, it is not given here. [ ]: non-standard residue; d: D form. Sec = N[C@@H](C[SeH])C(=O)O

T1: human oxytocin receptor (human, UniProt P30559 1-389)
T1 sequence (looked up): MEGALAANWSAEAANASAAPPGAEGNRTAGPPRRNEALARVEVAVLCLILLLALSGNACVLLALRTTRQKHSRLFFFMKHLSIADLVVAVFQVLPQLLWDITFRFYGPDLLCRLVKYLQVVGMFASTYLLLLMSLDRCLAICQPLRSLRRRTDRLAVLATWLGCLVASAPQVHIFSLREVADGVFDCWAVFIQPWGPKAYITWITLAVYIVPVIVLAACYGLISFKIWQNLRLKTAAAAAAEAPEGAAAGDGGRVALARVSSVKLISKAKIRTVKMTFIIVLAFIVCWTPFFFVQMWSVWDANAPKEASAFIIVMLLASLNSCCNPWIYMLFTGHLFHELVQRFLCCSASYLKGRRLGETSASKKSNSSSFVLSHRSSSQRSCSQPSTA

T2: human vasopressin V1b receptor (human, UniProt P47901 1-424)
T2 sequence (looked up): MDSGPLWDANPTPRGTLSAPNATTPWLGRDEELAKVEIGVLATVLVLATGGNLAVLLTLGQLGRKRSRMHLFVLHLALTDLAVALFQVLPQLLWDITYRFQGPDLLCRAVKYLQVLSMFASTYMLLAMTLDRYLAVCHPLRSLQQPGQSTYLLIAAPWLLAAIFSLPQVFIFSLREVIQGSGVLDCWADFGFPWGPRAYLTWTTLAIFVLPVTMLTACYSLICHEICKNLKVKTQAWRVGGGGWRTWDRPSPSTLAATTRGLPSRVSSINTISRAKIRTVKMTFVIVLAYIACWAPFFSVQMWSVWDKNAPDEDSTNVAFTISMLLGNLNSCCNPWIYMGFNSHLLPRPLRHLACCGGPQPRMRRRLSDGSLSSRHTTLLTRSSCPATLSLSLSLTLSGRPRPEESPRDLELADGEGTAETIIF


Experiments:
[1] = target: T1, human oxytocin receptor; test: cell-based or functional assay
[2] = target: T3, human vasopressin V1a receptor (human, UniProt P37288 1-418); test: cell-based or functional assay
[3] = target: T1, human oxytocin receptor; test: cell-based or functional assay; remark: listed apart in the source
[4] = target: T3, human vasopressin V1a receptor; test: cell-based or functional assay; remark: listed apart in the source
[5] = target: human vasopressin V2 receptor (human, UniProt P30518 1-371); test: cell-based or functional assay
[6] = target: T1, human oxytocin receptor; test: radioligand displacement (3H-OT), SPA beads, COS-1 membranes
[7] = target: T2, human vasopressin V1b receptor; test: cell-based or functional assay
[8] = target: T2, human vasopressin V1b receptor; test: cell-based or functional assay; remark: listed apart in the source

T3 sequence (P37288 whole entry): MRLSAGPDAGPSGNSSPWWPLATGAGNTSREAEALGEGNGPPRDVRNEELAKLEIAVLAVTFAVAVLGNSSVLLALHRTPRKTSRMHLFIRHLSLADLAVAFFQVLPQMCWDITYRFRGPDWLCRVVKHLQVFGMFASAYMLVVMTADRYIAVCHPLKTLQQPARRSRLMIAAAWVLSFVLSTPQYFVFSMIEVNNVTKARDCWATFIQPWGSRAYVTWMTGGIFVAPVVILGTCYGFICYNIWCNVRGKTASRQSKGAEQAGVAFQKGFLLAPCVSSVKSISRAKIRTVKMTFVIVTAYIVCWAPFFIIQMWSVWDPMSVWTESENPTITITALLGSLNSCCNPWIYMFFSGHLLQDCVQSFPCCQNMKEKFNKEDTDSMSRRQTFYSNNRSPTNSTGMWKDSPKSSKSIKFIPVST

| Binder | Emax, IP-One HTRF assay [1] | EC50, IP-One HTRF assay [2] | Emax, FLIPR calcium assay [3] | EC50, FLIPR calcium assay [4] | EC50, cAMP accumulation assay [5] | Emax, cAMP accumulation assay [5] | IC50 [6] | Emax, IP-One HTRF assay [2] | Emax, FLIPR calcium assay [4] | Emax, FLIPR calcium assay [7] | Emax, IP-One HTRF assay [8] |
| --- | --- | --- | --- | --- | --- | --- | --- | --- | --- | --- | --- |
| XYIQNXPLG (L-selenocysteine at positions 1 and 6, diselenide bridge; free C-terminal carboxylic acid, also called [Se-Se]-OT-OH) [[C1,6U]-OT-OH] | 60% | > 100000 nM | 38% | > 100000 nM | 495 nM | 114% | 1280 nM | – | – | – | – |
| CYIQN[Sec]PLG-NH2 (bridge 1-6; also: selenosulfide bond) [[C6U]-OT] | 55% | – | 82% | – | – | – | – | 67% | 104% | 73% | – |
| XYIQNXPLG (by its name: desaminoselenocysteine (3-selenopropanoic acid) at position 1, L-selenocysteine at position 6, diselenide bridge; free C-terminal carboxylic acid; structure is not given) [d[C1,6U]-OT-OH] | 71% | – | 49% | > 100000 nM | – | 135% | – | – | – | 58% | 63% |
| CYIQNCPLX (C-terminal amide; Cys1 and Cys6 form the cyclic part (disulfide)) [Oxytocin] | – | – | – | – | – | – | – | 79% | 71% | – | – |
| [Sec]YIQNCPLG-NH2 (bridge 1-6 via selenosulfide) [[C1U]-OT] | 84% | – | 85% | – | – | – | – | 96% | 90% | 82% | – |
| CYIQNCPLG-OH (disulfide 1-6) [[S-S]-OT-OH] | – | – | – | – | – | – | – | 77% | – | – | – |
